Measured values from the RNAGym collection of RNA variant scans (doi:10.7554/elife.80360).

B1: Hairpin Ribozyme (parent)
chain: GUCCUCUUUCACGUGCGCGUGAAAGAGAGAAGUGAACCAGAGAAACACACGUUGUGGUAUAUUACCUGGUA

Variants of: B1
Assay: self-cleavage, relative activity (ratio to wild type); higher = more cleavage; co-transcriptional
For A47U U52A, the self-cleavage was 0.148. Work on A47U U52G yielded a self-cleavage of 0.256. A49U U63G showed a self-cleavage of 0.111. Work on A49U U63A yielded a self-cleavage of 0.183. Variant A49U G68A has a self-cleavage of 0.172. For A49G U70C, the self-cleavage was 0.262. A49G U70G gave a self-cleavage of 0.453. A49G U70A gave a self-cleavage of 0.377. In the case of A49C C66A, the self-cleavage is reported as 0.28. With A47U U58A the self-cleavage was 0.106. Variant C48A U62A has a self-cleavage of 0.14. Work on C48U U52C yielded a self-cleavage of 0.194. Work on A47U G51A yielded a self-cleavage of 0.157. In the case of C48G U55C, the self-cleavage is reported as 0.106. C48G U55G gave a self-cleavage of 0.143. A47U G57A gave a self-cleavage of 0.417. With C48A A61G the self-cleavage was 0.151. A49C A64G gave a self-cleavage of 0.0856. Work on A49C A64C yielded a self-cleavage of 0.168. Work on A47U A64C yielded a self-cleavage of 0.0694. For C48G G57A, the self-cleavage was 0.151. With C48G G57U the self-cleavage was 0.101. C48G A71G gave a self-cleavage of 0.142. For A47U U53A, the self-cleavage was 0.133. A47U U53C showed a self-cleavage of 0.0703. For C48G U62G, the self-cleavage was 0.107. Work on C48G U62C yielded a self-cleavage of 0.139. In the case of C48U A61G, the self-cleavage is reported as 0.177. Work on C48U U67G yielded a self-cleavage of 0.0927. C48A G56U gave a self-cleavage of 0.304. In the case of C48A G56A, the self-cleavage is reported as 0.135. With C48U A49G the self-cleavage was 0.153. Work on C48U A49U yielded a self-cleavage of 0.208. Variant A49G U63C has a self-cleavage of 0.253. Variant A49G U63A has a self-cleavage of 0.0688. Work on A47G U60A yielded a self-cleavage of 0.139. Variant A47G U60C has a self-cleavage of 0.135. Variant C48G G68A has a self-cleavage of 0.226. Variant C48G G68U has a self-cleavage of 0.163. Variant A47U G68A has a self-cleavage of 0.148. A47U G68C showed a self-cleavage of 0.26. Variant C48U A59U has a self-cleavage of 0.0991. Work on C48G C65G yielded a self-cleavage of 0.149. Variant C48G C65A has a self-cleavage of 0.22. C48G C65U gave a self-cleavage of 0.166. In the case of C48U C66A, the self-cleavage is reported as 0.176. In the case of C48A C65A, the self-cleavage is reported as 0.131. A49C G56C showed a self-cleavage of 0.12. A49U U70C gave a self-cleavage of 0.124. Work on A47U A49U yielded a self-cleavage of 0.149. In the case of A47U A49C, the self-cleavage is reported as 0.144. In the case of C48A U58C, the self-cleavage is reported as 0.154. In the case of A49C A61C, the self-cleavage is reported as 0.124. C48A U60G showed a self-cleavage of 0.149. Variant C50A A59U has a self-cleavage of 0.231. C48G G54U showed a self-cleavage of 0.211. With A47G U67G the self-cleavage was 0.0884. C48G A59U gave a self-cleavage of 0.0386. With A49C C50A the self-cleavage was 0.139. Variant A49C U53G has a self-cleavage of 0.0631. With A49C U53A the self-cleavage was 0.0758. For A49C U53C, the self-cleavage was 0.27. Variant C48G U53G has a self-cleavage of 0.128. With A49C A71C the self-cleavage was 0.291. In the case of A47U G69C, the self-cleavage is reported as 0.227. Variant A49U U60A has a self-cleavage of 0.281. Work on C48A U67A yielded a self-cleavage of 0.11. C48A U67C gave a self-cleavage of 0.137. C48G C66A gave a self-cleavage of 0.131. In the case of C48A A71G, the self-cleavage is reported as 0.19. Work on C48A A71C yielded a self-cleavage of 0.343. In the case of C48A A71U, the self-cleavage is reported as 0.129. In the case of A49U U67A, the self-cleavage is reported as 0.0529. A49U U67C showed a self-cleavage of 0.11. In the case of C48A G57C, the self-cleavage is reported as 0.148. A47U A61U showed a self-cleavage of 0.211. A49C U62G showed a self-cleavage of 0.225. Variant A49U U62C has a self-cleavage of 0.196. Variant A49U U58A has a self-cleavage of 0.187. A49U U58C showed a self-cleavage of 0.28. A49U U58G gave a self-cleavage of 0.15. C48G G51U showed a self-cleavage of 0.17. C48G G51C showed a self-cleavage of 0.0824. Variant C48G U58A has a self-cleavage of 0.105. A49G G69U gave a self-cleavage of 0.148. Work on C48U A71G yielded a self-cleavage of 0.242. A49G G54A gave a self-cleavage of 0.64. Work on A49G G54C yielded a self-cleavage of 0.277. A49G G54U gave a self-cleavage of 0.541. Work on A49G G56C yielded a self-cleavage of 0.155. With C48U U70C the self-cleavage was 0.0914. With A49U G57C the self-cleavage was 0.0724. For C48A C66A, the self-cleavage was 0.189. Work on C48U G56C yielded a self-cleavage of 0.104. For A49U U52C, the self-cleavage was 0.202. A49U U52G gave a self-cleavage of 0.364. C48A U53A showed a self-cleavage of 0.228. Work on C48A U53G yielded a self-cleavage of 0.191. For C48A C50G, the self-cleavage was 0.0517. Work on A49G U53C yielded a self-cleavage of 0.363. Work on A49G U53G yielded a self-cleavage of 0.44. Work on A49C U67G yielded a self-cleavage of 0.109. Work on A49C U67C yielded a self-cleavage of 0.0984. With A49C U67A the self-cleavage was 0.13. C48A U63C showed a self-cleavage of 0.198. A47G U63C showed a self-cleavage of 0.248. C48A A64C gave a self-cleavage of 0.0601. In the case of A49G A59C, the self-cleavage is reported as 0.194. In the case of A49G A59G, the self-cleavage is reported as 0.145. In the case of A49C U60G, the self-cleavage is reported as 0.166. C48A U55C gave a self-cleavage of 0.144. Variant C48G U63A has a self-cleavage of 0.181. A49U C65U showed a self-cleavage of 0.0248. A49G U58A showed a self-cleavage of 0.217. C48G G56U gave a self-cleavage of 0.193. Work on A49U G54A yielded a self-cleavage of 0.477. With C48U U53A the self-cleavage was 0.0973. Work on C48U U53G yielded a self-cleavage of 0.112. In the case of C48U G51U, the self-cleavage is reported as 0.165. Work on A49C G69U yielded a self-cleavage of 0.136. With A49C G69A the self-cleavage was 0.139. Variant A49G C65A has a self-cleavage of 0.42. With A47U U70A the self-cleavage was 0.276. With A47U U70G the self-cleavage was 0.141. For C48G A64G, the self-cleavage was 0.155. With C48G A64U the self-cleavage was 0.149. A49G A64U gave a self-cleavage of 0.0802. Variant A47G U70A has a self-cleavage of 0.204. Work on C48U U62G yielded a self-cleavage of 0.108. Variant A49G G68C has a self-cleavage of 0.307. A47U C65U gave a self-cleavage of 0.0249. C48U G68U gave a self-cleavage of 0.097. With A49U U55C the self-cleavage was 0.349. A47G U62G showed a self-cleavage of 0.0586. Work on A47G U62C yielded a self-cleavage of 0.0615. In the case of C48A G51U, the self-cleavage is reported as 0.141. Variant C48A G51C has a self-cleavage of 0.152. Work on C48A G51A yielded a self-cleavage of 0.106. In the case of C48U U58G, the self-cleavage is reported as 0.152. For C48U U58A, the self-cleavage was 0.214. A49U G56U showed a self-cleavage of 0.147. Work on A49U G56C yielded a self-cleavage of 0.102. A47U C66G showed a self-cleavage of 0.116. A49C G54U showed a self-cleavage of 0.216. For A47U U67A, the self-cleavage was 0.103. A47U C50A showed a self-cleavage of 0.113. Work on A47U C50G yielded a self-cleavage of 0.28. Work on A47U U55G yielded a self-cleavage of 0.128. A47U U55C gave a self-cleavage of 0.203. Work on C48G U67G yielded a self-cleavage of 0.113. Variant A49U C50U has a self-cleavage of 0.139. Variant C48G U60C has a self-cleavage of 0.0854. With A49G U62C the self-cleavage was 0.154. In the case of A49C G57A, the self-cleavage is reported as 0.193. In the case of C48A, the self-cleavage is reported as 0.157. For C48U, the self-cleavage was 0.158. For C48G, the self-cleavage was 0.153. For A49G G51U, the self-cleavage was 0.532. For C48A G54U, the self-cleavage was 0.176. For C48A G54C, the self-cleavage was 0.0747. For A47U U62C, the self-cleavage was 0.264. Work on A49U U53G yielded a self-cleavage of 0.167. A49U U53A gave a self-cleavage of 0.139. A49U U53C gave a self-cleavage of 0.124. In the case of A49G G57U, the self-cleavage is reported as 0.22. Variant A47U A59C has a self-cleavage of 0.164. For C48A G68U, the self-cleavage was 0.16.
